# Measurements as given in patent US20220119506A1 (NOVOBIND LIVESTOCK THERAPEUTICS, published 2022).
# Key:
# PirA = target: T1, PirA (Vibrio parahaemolyticus); experiment: phage ELISA, antigen-coated wells
# T1 construct: also called JHE-like toxin PirA-like; vp19
# T1 chain: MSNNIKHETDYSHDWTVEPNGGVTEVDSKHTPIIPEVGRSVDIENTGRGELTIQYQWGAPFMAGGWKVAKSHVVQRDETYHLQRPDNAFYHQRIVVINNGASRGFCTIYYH
# VP28 = target: T2, VP28 (White spot syndrome virus); experiment: phage ELISA, antigen-coated wells
# T2 construct: Recombinant antigen; also called Coat protein VP28
# T2 chain: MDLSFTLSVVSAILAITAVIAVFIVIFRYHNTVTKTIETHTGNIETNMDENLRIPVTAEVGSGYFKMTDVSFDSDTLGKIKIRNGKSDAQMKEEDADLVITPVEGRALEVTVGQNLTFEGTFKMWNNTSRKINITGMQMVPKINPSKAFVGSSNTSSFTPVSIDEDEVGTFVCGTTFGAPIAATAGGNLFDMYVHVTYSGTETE
Binder,binding above PBS-coated wells (PirA) [%],binding above PBS-coated wells (VP28) [%]
"NBX0821 (VHH, on phage in the phage ELISA) VHH: QVQLQESGGGLVQAGGSLRLSCVVSGMLFSIRNMRWYRQAPGKQRELVAQIGTSGATDYVGSVEGRFTISRDNPKNTVYLQMNSLKPEDTAVYFCNALNYWGEGTLVTVSS",≥ 50,–
"NBX0824 (VHH, on phage in the phage ELISA) VHH: QVQLQESGGGLVQAGGSLRLTCAASGRTLSSYLSSYAMGWFRQAPGKERESVATITWNGDRTLYADAVKGRFTISRDNAKNTVYLQMNSVIPEDTAVYYCAADTVGRWRSTLSVRDEYDYWGQGTQVTVAS",≥ 50,–
"NBX0822 (VHH, on phage in the phage ELISA) VHH: QVQLQESGGGLVRPGDSLTLSCTYSGQTFTNSGMAWFRQRPGKEREFVAAVSRSGLGRRYADSVRGRFTITRDNGKNTANLQMDSLKPEDTAVYSCAATTLDWGPRGPYRYWGQGTQVTVSS",≥ 50,–
"NBX0730 (VHH, on phage in the phage ELISA) VHH: QVQLQESGGGLVQTGDSLRLACAASGRTFSSYPMAWYRQAPGQEREFVAGINRNGNIPVYADSVKGRFTISRDNAKNTVYLQMNNLKPEDTAVYYCAARTIYDSHYTSWGQGTQVTVSS",–,≥ 50
"NBX0825 (VHH, on phage in the phage ELISA) VHH: QVQLQESGGGVVETGGSLSVSCVASGRTFSAYTMAWFRQSPGKEREFVASMSRGSAAYYTDSVRGRFAISRVGDKNTVHLQMRDLKPEDTAVYYCAGGSPGSSQIATPEAYTYWGQGTQVTVSA",≥ 50,–
"NBX0815 (VHH, on phage in the phage ELISA) VHH: QVQLQESGGGLVQAGGSLRLSCAASGRTFSSYAMGWFRQSPGKDREFVAAVSWSGGSTYYADSLKGRFTISRDNAKNTVYLQMNSLKPEDTADYYCAAQRVMDYYRPRTESAYAYWGQGTRVTVSS",≥ 50,–
"NBX0817 (VHH, on phage in the phage ELISA) VHH: QVQLQESGGGLVQAGGSLRLSCGASGGTNSNYAMGWFRQPPGKKREFVAALSWSGYNTHYADSVKGRFTISRPSARTVDLQMNNVKPEDTAVYYCAARLSGRTAGSRTYYAEGQYDYRGQGTQVTVSS",≥ 50,–
"NBX0823 (VHH, on phage in the phage ELISA) VHH: QVQLQQSGGGLVQTGGSLRLSCAASGSIFSIDFMGWYRQAPGNPREFVARIRGGNTYYADSVKGRFNISRDNAENTVYMQMNSLKSEDTAVYYCNAQITMRGGTWSTSEYWGQGTQVNVSS",≥ 50,–
"NBX0820 (VHH, on phage in the phage ELISA) VHH: QVQLQESGGGLVQTGGSLRLSCAASGRTFSNYVIGWFRQAPGKEREFVAAVGRGINSAYHATHYSESVKDRFTTSRDNAKNTGFLQMNSLKTEDTAVYYCAVTSRWGQFDRTDFNSWGQGTQVTVSS",≥ 50,–
"NBX0602 (VHH, on phage in the phage ELISA) VHH: QVQLQESGGGLVQAGDSLRLSCAASGRTFSRYAMGWFRQAPGKEREFVAAVDWSGGSTAYADSVKGRFTISRDNAKNTVYLQMNSLKPDDTAVYYCAARARDVYGRAWYVEDSSTYDYWGQGTQVTVSS",≥ 50,–
"NBX0723 (VHH, on phage in the phage ELISA) VHH: QVQLQESGGGLVQAGGSLRLSCAASGRTFSSYPMGWFRQAPGSEREQIAGISRSGVPGKYADSVSGRFTISRDNAKNTLYLQMNSLKPEDTAVYYCAARSIYSNNYSYWGQGTQVTVSS",–,≥ 50
"NBX0746 (VHH, on phage in the phage ELISA) VHH: QVQLQESGGGLVQAGGSLRLSCAASGRTFSSYAMGWFRRAPGKEREQIAGISRSGNPGKYADSVSGRFTISRDNAKNTLYLQMNSLKPEDTAVYYCAARQIYSNNYSYWGQGTQVTVSS",–,≥ 50
"NBX0745 (VHH, on phage in the phage ELISA) VHH: QVQLQESGGGLVQAGGSLRLSCAASGRTFSSYPMGWFRQAPGKEREQIAGISRSGDPGKYAASVSGRFTISRDNAKNTLYLQMNSLKPEDTAVYYCAAREIYSNNYSYWGQGTQVTVSS",–,≥ 50
"NBX0724 (VHH, on phage in the phage ELISA) VHH: QVQLQQSGGGLVQAGGSLRLSCAASGRTFSSYPMGWFRQAPGSEREQIAGISRSGVSGKYADSVSGRFTISRDNAKNTLYLQMNSLKPEDTAVYYCAARSIYSNNYSYWGQGTQVTVSS",–,≥ 50
"NBX0725 (VHH, on phage in the phage ELISA) VHH: QVQLQQSGGGLVQAGGSLRLSCTASGRTFSSYPMGWFRQAPGKEREQIAGISRSGNPGKYADSVSGRFTISRDNAKNTLYLQMNSLKPEDTAVYYCAARQIYSNNYSYWGQGTQVTVSS",–,≥ 50
"NBX0722 (VHH, on phage in the phage ELISA) VHH: QVQLQESGGGLVQAGGSLRLSCRASGRTFSSYPMGWFRQAPGKEREQIAGISRSGDPGKYAASVSGRFTISRDNAKNTLYLQMNSLKPEDTAVYYCAARQIYSNNYSYWGQGTQVTVSS",–,≥ 50
